According to patent publication US20110065176A1:

Target: KDR(ECD1-3)-Fc (human) (UniProt P35968)
Experiment: BIAcore; KDR(ECD1-3)-Fc immobilized on CM5 chip, IgG in flow

KDR(ECD1-3)-Fc (human), sequence (P35968 other isoform, or with tags, fused parts or gaps limits assumed, form in doubt): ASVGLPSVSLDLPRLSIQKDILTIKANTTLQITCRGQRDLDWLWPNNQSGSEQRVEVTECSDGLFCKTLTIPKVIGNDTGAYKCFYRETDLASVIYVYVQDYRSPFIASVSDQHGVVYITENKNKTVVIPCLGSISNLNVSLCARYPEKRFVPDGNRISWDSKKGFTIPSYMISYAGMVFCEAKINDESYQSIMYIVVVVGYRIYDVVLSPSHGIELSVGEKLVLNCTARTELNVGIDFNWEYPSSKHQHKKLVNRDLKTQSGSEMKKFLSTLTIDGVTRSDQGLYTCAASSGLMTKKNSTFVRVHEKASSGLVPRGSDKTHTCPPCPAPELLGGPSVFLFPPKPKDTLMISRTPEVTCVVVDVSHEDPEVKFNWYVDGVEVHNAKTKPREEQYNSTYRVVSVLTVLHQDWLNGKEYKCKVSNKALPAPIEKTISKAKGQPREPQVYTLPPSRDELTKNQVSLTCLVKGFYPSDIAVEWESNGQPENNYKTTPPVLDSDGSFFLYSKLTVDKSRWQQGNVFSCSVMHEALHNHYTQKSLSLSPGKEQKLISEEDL

Kd: 0.385 nM
koff: 8.75e-05 s⁻¹
kon: 227000 M⁻¹ s⁻¹
Substance: IMC-1121 IgG (reconstructed) (antibody)
